Target: MERTK (UniProt Q12866)
Test: phosphorylation enrichment, bacterial display (enrichment ratio); higher = better substrate or ligand; peptides without Tyr show the background
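Throughout, for SH2 binding enrichment of the phosphorylated peptide, bacterial display: peptide library displayed on the E. coli surface as eCPX fusions, selected cells deep-sequenced, score is each peptide's frequency after selection divided by its frequency in the input.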
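Throughout, for phosphorylation enrichment, bacterial display: 11-residue human phosphosite peptides and single-mutation variants displayed on the E. coli surface, counted by deep sequencing, each peptide's frequency after selection divided by its frequency in the unselected input library; frequency after pTyr selection over input frequency; kinase dosed for 20-30% of maximal phosphorylation in three min.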

MERTK, sequence (Q12866 whole entry, looked up): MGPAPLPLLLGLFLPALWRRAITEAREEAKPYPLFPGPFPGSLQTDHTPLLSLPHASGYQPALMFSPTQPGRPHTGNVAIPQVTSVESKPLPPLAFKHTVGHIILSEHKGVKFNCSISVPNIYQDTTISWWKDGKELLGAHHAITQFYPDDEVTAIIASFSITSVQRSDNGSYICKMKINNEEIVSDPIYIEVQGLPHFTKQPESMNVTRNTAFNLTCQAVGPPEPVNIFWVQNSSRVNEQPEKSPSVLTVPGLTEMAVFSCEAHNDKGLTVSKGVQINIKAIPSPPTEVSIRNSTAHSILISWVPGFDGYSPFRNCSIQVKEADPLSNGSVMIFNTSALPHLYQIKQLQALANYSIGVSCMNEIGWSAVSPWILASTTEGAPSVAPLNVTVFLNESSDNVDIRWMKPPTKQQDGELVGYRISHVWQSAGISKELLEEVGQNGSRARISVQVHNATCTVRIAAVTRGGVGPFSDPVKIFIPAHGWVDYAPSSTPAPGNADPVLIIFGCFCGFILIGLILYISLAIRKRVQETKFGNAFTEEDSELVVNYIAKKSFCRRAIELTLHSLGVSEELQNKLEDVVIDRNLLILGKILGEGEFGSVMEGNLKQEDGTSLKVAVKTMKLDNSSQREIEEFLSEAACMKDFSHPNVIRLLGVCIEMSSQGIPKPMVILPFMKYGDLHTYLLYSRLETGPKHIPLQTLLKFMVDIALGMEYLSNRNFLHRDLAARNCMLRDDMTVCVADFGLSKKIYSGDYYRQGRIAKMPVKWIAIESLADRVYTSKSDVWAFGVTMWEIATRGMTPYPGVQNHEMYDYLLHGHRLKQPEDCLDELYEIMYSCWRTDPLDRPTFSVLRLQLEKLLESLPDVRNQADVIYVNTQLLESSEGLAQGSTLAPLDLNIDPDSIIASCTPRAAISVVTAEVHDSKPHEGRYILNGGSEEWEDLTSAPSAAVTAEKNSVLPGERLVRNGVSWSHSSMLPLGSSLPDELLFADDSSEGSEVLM

Row | Sequence | phosphorylation enrichment
1 | AEQDCYHGAIP [FER_Y461_W460C] | 0.453
2 | ENQEIYQKAFD [KPNA1_Y493] | 0.616
3 | QGIFGYHHHMQ [UFSP2_Y287_Y290H_YF] | 0.521
4 | RSFPSYFTSHV [NEFL_Y442_YF] | 0.629
5 | CEDMEYLESKQ [BTK_Y511_A508D] | 0.497
6 | LSERGYSFVTT [ACTA2_Y200_T196S] | 0.986
7 | QHVPDYRQNVY [PCDHGA1_Y890] | 0.478
8 | ISRDVYSTDYY [NTRK2_Y702_M697I] | 6.57
9 | IRSGIYFKPES [L2HGDH_Y102_H98R_YF] | 4.3
10 | VHNLDYYKETT [FGFR3_Y647_K650E] | 0.39
11 | EQMASYFGHSV [ITGA2B_Y319] | 0.425
12 | DGDTRYSTFSE [TKTL1_Y318] | 0.451
13 | VMICAYLLHRG [PTEN_Y138] | 0.482
14 | TGSFTCEAVEL [MTMR14_Y462_Y462C] | 0.419
15 | NPETCYQRLKK [TK2_Y190] | 0.469
16 | KILTHYKQPHT [KMT2D_Y5349_R5351Q] | 0.506

Target: Fyn (UniProt P06241)
Sequence (P06241 whole entry, looked up): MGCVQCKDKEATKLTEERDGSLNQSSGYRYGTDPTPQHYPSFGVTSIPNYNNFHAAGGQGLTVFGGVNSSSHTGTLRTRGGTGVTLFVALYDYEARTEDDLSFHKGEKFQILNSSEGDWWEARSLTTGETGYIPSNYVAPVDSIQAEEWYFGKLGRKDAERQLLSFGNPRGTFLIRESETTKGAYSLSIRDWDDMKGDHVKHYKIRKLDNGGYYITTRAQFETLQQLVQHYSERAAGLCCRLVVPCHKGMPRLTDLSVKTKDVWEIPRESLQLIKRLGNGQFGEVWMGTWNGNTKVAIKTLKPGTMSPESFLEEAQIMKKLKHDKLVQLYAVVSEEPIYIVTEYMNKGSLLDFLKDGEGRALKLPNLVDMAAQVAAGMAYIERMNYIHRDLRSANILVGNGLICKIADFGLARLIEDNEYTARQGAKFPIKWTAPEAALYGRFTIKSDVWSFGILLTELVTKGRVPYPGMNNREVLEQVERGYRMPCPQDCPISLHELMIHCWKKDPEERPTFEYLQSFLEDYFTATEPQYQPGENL
Test: as above

Row | Sequence | phosphorylation enrichment
17 | AEQDCYHGAIP [FER_Y461_W460C] | 0.472
18 | ENQEIYQKAFD [KPNA1_Y493] | 0.866
19 | QGIFGYHHHMQ [UFSP2_Y287_Y290H_YF] | 0.395
20 | RSFPSYFTSHV [NEFL_Y442_YF] | 0.65
21 | CEDMEYLESKQ [BTK_Y511_A508D] | 0.494
22 | LSERGYSFVTT [ACTA2_Y200_T196S] | 0.81
23 | QHVPDYRQNVY [PCDHGA1_Y890] | 0.673
24 | ISRDVYSTDYY [NTRK2_Y702_M697I] | 3.34
25 | IRSGIYFKPES [L2HGDH_Y102_H98R_YF] | 0.768
26 | VHNLDYYKETT [FGFR3_Y647_K650E] | 0.421
27 | EQMASYFGHSV [ITGA2B_Y319] | 0.549
28 | DGDTRYSTFSE [TKTL1_Y318] | 0.467
29 | VMICAYLLHRG [PTEN_Y138] | 0.478
30 | TGSFTCEAVEL [MTMR14_Y462_Y462C] | 0.65
31 | NPETCYQRLKK [TK2_Y190] | 0.412
32 | KILTHYKQPHT [KMT2D_Y5349_R5351Q] | 0.478

Target: Hck (UniProt P08631)
Sequence (P08631 whole entry, looked up): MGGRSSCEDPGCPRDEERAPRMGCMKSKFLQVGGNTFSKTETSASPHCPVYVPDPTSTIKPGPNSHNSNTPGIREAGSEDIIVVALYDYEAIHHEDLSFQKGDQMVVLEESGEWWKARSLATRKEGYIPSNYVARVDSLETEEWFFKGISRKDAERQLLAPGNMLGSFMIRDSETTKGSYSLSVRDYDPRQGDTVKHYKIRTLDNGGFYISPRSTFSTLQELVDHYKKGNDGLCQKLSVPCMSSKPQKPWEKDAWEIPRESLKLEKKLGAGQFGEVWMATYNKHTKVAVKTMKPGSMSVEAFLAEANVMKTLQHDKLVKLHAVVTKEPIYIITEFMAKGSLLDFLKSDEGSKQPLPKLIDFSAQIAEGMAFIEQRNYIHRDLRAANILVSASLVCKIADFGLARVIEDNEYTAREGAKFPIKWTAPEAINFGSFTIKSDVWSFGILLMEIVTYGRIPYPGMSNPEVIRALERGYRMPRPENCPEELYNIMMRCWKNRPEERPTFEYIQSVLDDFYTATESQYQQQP
Test: as above

Row | Sequence | phosphorylation enrichment
33 | AEQDCYHGAIP [FER_Y461_W460C] | 0.499
34 | ENQEIYQKAFD [KPNA1_Y493] | 1.2
35 | QGIFGYHHHMQ [UFSP2_Y287_Y290H_YF] | 0.664
36 | RSFPSYFTSHV [NEFL_Y442_YF] | 0.477
37 | CEDMEYLESKQ [BTK_Y511_A508D] | 0.643
38 | LSERGYSFVTT [ACTA2_Y200_T196S] | 0.724
39 | QHVPDYRQNVY [PCDHGA1_Y890] | 0.665
40 | ISRDVYSTDYY [NTRK2_Y702_M697I] | 1.95
41 | IRSGIYFKPES [L2HGDH_Y102_H98R_YF] | 0.786
42 | VHNLDYYKETT [FGFR3_Y647_K650E] | 0.456
43 | EQMASYFGHSV [ITGA2B_Y319] | 0.452
44 | DGDTRYSTFSE [TKTL1_Y318] | 0.559
45 | VMICAYLLHRG [PTEN_Y138] | 0.558
46 | TGSFTCEAVEL [MTMR14_Y462_Y462C] | 0.573
47 | NPETCYQRLKK [TK2_Y190] | 0.736
48 | KILTHYKQPHT [KMT2D_Y5349_R5351Q] | 0.46

Target: EPHB1 (UniProt P54762)
Sequence (P54762 whole entry, looked up): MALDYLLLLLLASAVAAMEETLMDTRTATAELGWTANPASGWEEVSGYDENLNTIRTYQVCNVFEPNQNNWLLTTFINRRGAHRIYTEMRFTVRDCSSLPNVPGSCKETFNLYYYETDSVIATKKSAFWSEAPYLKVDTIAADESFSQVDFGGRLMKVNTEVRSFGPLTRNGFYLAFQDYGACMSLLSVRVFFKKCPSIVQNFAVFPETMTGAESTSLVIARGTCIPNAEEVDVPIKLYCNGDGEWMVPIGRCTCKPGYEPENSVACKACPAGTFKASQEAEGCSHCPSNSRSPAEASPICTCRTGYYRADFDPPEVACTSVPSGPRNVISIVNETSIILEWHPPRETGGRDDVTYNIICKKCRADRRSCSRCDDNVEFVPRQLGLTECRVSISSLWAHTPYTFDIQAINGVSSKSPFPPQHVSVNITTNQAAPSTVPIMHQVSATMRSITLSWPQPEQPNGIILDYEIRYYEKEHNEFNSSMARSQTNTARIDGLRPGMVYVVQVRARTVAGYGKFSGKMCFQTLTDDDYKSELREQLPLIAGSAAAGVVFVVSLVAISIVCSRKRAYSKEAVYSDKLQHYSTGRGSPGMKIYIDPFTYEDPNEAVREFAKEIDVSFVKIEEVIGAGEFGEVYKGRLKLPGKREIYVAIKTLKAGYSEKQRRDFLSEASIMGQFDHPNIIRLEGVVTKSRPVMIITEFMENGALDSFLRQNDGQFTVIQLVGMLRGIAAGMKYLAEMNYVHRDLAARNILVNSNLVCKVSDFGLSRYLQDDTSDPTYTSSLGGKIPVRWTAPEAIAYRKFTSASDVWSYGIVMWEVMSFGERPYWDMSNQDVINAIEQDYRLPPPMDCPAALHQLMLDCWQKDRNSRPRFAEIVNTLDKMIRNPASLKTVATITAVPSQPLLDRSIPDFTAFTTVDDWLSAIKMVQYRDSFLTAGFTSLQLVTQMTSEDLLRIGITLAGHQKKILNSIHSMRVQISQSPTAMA
Test: as above

Row | Sequence | phosphorylation enrichment
49 | AEQDCYHGAIP [FER_Y461_W460C] | 0.648
50 | ENQEIYQKAFD [KPNA1_Y493] | 0.579
51 | QGIFGYHHHMQ [UFSP2_Y287_Y290H_YF] | 0.639
52 | RSFPSYFTSHV [NEFL_Y442_YF] | 0.672
53 | CEDMEYLESKQ [BTK_Y511_A508D] | 0.652
54 | LSERGYSFVTT [ACTA2_Y200_T196S] | 0.94
55 | QHVPDYRQNVY [PCDHGA1_Y890] | 0.544
56 | ISRDVYSTDYY [NTRK2_Y702_M697I] | 2.43
57 | IRSGIYFKPES [L2HGDH_Y102_H98R_YF] | 0.63
58 | VHNLDYYKETT [FGFR3_Y647_K650E] | 0.452
59 | EQMASYFGHSV [ITGA2B_Y319] | 0.44
60 | DGDTRYSTFSE [TKTL1_Y318] | 0.609
61 | VMICAYLLHRG [PTEN_Y138] | 0.612
62 | TGSFTCEAVEL [MTMR14_Y462_Y462C] | 0.661
63 | NPETCYQRLKK [TK2_Y190] | 0.527
64 | KILTHYKQPHT [KMT2D_Y5349_R5351Q] | 0.364

Target: Jak2 (UniProt O60674)
Sequence (O60674 whole entry, looked up): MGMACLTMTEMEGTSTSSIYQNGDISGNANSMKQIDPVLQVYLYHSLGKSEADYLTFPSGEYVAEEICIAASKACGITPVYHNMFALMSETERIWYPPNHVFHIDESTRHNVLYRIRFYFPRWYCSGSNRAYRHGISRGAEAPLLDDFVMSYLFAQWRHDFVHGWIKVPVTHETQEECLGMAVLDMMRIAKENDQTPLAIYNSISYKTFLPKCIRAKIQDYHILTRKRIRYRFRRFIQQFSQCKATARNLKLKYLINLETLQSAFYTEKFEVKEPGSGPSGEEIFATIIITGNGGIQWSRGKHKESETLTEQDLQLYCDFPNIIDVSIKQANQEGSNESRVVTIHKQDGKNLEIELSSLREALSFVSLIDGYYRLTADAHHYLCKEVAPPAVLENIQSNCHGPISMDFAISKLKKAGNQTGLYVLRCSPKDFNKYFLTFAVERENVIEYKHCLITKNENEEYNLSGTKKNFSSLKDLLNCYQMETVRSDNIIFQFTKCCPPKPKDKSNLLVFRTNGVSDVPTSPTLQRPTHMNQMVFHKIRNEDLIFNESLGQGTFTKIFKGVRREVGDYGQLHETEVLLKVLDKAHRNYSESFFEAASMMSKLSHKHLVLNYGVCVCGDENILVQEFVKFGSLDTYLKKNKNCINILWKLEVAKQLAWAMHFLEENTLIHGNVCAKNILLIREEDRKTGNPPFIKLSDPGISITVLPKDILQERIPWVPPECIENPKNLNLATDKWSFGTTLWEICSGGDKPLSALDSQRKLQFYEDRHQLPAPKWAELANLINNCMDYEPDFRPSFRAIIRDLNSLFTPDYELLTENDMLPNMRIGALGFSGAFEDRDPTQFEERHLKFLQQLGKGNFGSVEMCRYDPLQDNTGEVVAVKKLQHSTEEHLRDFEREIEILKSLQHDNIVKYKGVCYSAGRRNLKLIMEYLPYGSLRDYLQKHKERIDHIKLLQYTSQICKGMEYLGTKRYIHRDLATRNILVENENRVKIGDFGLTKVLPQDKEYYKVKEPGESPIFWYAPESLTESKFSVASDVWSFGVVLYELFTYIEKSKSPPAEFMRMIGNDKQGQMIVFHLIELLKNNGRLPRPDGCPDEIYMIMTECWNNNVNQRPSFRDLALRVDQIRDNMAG
Test: as above

Row | Sequence | phosphorylation enrichment
65 | AEQDCYHGAIP [FER_Y461_W460C] | 0.742
66 | ENQEIYQKAFD [KPNA1_Y493] | 1.08
67 | QGIFGYHHHMQ [UFSP2_Y287_Y290H_YF] | 1.07
68 | RSFPSYFTSHV [NEFL_Y442_YF] | 1.8
69 | CEDMEYLESKQ [BTK_Y511_A508D] | 1.22
70 | LSERGYSFVTT [ACTA2_Y200_T196S] | 1.08
71 | QHVPDYRQNVY [PCDHGA1_Y890] | 0.76
72 | ISRDVYSTDYY [NTRK2_Y702_M697I] | 1.12
73 | IRSGIYFKPES [L2HGDH_Y102_H98R_YF] | 1.19
74 | VHNLDYYKETT [FGFR3_Y647_K650E] | 0.714
75 | EQMASYFGHSV [ITGA2B_Y319] | 0.842
76 | DGDTRYSTFSE [TKTL1_Y318] | 0.849
77 | VMICAYLLHRG [PTEN_Y138] | 1.36
78 | TGSFTCEAVEL [MTMR14_Y462_Y462C] | 0.892
79 | NPETCYQRLKK [TK2_Y190] | 0.966
80 | KILTHYKQPHT [KMT2D_Y5349_R5351Q] | 0.726

Target: SHP2-C SH2
Test: SH2 binding enrichment of the phosphorylated peptide, bacterial display (enrichment ratio); higher = better substrate or ligand; peptides without Tyr show the background

Row | SH2 binding enrichment | Sequence
81 | 0.936 | QGIFGYHHHMQ [UFSP2_Y287_Y290H_YF]
82 | 0.638 | QHVPDYRQNVY [PCDHGA1_Y890]
83 | 0.719 | ISRDVYSTDYY [NTRK2_Y702_M697I]
84 | 1.82 | DGDTRYSTFSE [TKTL1_Y318]
85 | 0.714 | VMICAYLLHRG [PTEN_Y138]
86 | 0.739 | NPETCYQRLKK [TK2_Y190]

The next lines start with the sequence.

Row | Sequence | SH2 binding enrichment
87 | AEQDCYHGAIP [FER_Y461_W460C] | 0.827
88 | ENQEIYQKAFD [KPNA1_Y493] | 0.737
89 | RSFPSYFTSHV [NEFL_Y442_YF] | 1.08
90 | CEDMEYLESKQ [BTK_Y511_A508D] | 0.622
91 | LSERGYSFVTT [ACTA2_Y200_T196S] | 5.26
92 | IRSGIYFKPES [L2HGDH_Y102_H98R_YF] | 1.13
93 | VHNLDYYKETT [FGFR3_Y647_K650E] | 0.585
94 | EQMASYFGHSV [ITGA2B_Y319] | 0.596
95 | TGSFTCEAVEL [MTMR14_Y462_Y462C] | 0.676
96 | KILTHYKQPHT [KMT2D_Y5349_R5351Q] | 0.998

Target: Grb2 SH2 (UniProt P62993)
Test: as above

Row | SH2 binding enrichment | Sequence
97 | 1.16 | QGIFGYHHHMQ [UFSP2_Y287_Y290H_YF]
98 | 0.886 | QHVPDYRQNVY [PCDHGA1_Y890]
99 | 0.745 | ISRDVYSTDYY [NTRK2_Y702_M697I]
100 | 0.978 | DGDTRYSTFSE [TKTL1_Y318]
101 | 1.05 | VMICAYLLHRG [PTEN_Y138]
102 | 0.787 | NPETCYQRLKK [TK2_Y190]

Second part, the sequence before the results:

Row | Sequence | SH2 binding enrichment
103 | AEQDCYHGAIP [FER_Y461_W460C] | 0.96
104 | ENQEIYQKAFD [KPNA1_Y493] | 0.83
105 | RSFPSYFTSHV [NEFL_Y442_YF] | 0.888
106 | CEDMEYLESKQ [BTK_Y511_A508D] | 0.805
107 | LSERGYSFVTT [ACTA2_Y200_T196S] | 0.806
108 | IRSGIYFKPES [L2HGDH_Y102_H98R_YF] | 0.776
109 | VHNLDYYKETT [FGFR3_Y647_K650E] | 0.702
110 | EQMASYFGHSV [ITGA2B_Y319] | 0.758
111 | TGSFTCEAVEL [MTMR14_Y462_Y462C] | 0.888
112 | KILTHYKQPHT [KMT2D_Y5349_R5351Q] | 1.05

Target: c-Src SH2
Test: as above

Row | SH2 binding enrichment | Sequence
113 | 0.945 | QGIFGYHHHMQ [UFSP2_Y287_Y290H_YF]
114 | 0.483 | QHVPDYRQNVY [PCDHGA1_Y890]
115 | 0.543 | ISRDVYSTDYY [NTRK2_Y702_M697I]
116 | 2.62 | DGDTRYSTFSE [TKTL1_Y318]
117 | 0.723 | VMICAYLLHRG [PTEN_Y138]
118 | 0.692 | NPETCYQRLKK [TK2_Y190]

Second part, the sequence before the results:

Row | Sequence | SH2 binding enrichment
119 | AEQDCYHGAIP [FER_Y461_W460C] | 0.65
120 | ENQEIYQKAFD [KPNA1_Y493] | 0.47
121 | RSFPSYFTSHV [NEFL_Y442_YF] | 0.73
122 | CEDMEYLESKQ [BTK_Y511_A508D] | 0.454
123 | LSERGYSFVTT [ACTA2_Y200_T196S] | 8.52
124 | IRSGIYFKPES [L2HGDH_Y102_H98R_YF] | 0.642
125 | VHNLDYYKETT [FGFR3_Y647_K650E] | 0.564
126 | EQMASYFGHSV [ITGA2B_Y319] | 0.491
127 | TGSFTCEAVEL [MTMR14_Y462_Y462C] | 0.576
128 | KILTHYKQPHT [KMT2D_Y5349_R5351Q] | 0.907

Source: the supplement of paper PMC10065799, “High-throughput profiling of sequence recognition by tyrosine kinases and SH2 domains using bacterial peptide display” (eLife, 2023)
